This test addresses CaM (calmodulin) (UniProt P0DP23). As to the kind of experiment: CaM mobility shift on non-denaturing PAGE. The settings on record: reference: unmodified T495 peptide; sites T495.

Turning to “eNOS (endothelial nitric-oxide synthase; heNOS) CaM-binding domain (CBD), 491-510 (from UniProt P29474) pT495 peptide”, the “binding against the reference” value is on record as “weaker”.

These data come from PMC4122979, “The N-terminal portion of autoinhibitory element modulates human endothelial nitric-oxide synthase activity through coordinated controls of phosphorylation at Thr^495 and Ser^1177” (Bioscience Reports, 2014).
